According to patent publication US20260274910A1, “SINGLE FUSION PROTEIN AND PHARMACEUTICAL COMPOSITION” (MEDI&GENE INC., priority 2023, published 2026):

B1: Human ATPIF1 (peptide, listed as Homo sapiens)
chain: GSDQSENVDRGAGSIREAGGAFGKREQAEEERYFRAQSREQLAALKKHHEEEIVHHKKEIERLQKEIERHKQKIKMLKHDD
B2: His tag Human ATPIF1 (protein)
chain: MGSHHHHHHSSGLVPRGSHMGSDQSENVDRGAGSIREAGGAFGKREQAEEERYFRAQSREQLAALKKHHEEEIVHHKKEIERLQKEIERHKQKIKMLKHDD
notes: Recombinant protein: His tag-wild-type substance (1-81), control group

Experiments:
[1] = test system: 3T3-L1 adipocytes; assay: Lipid droplet analysis (BODIPY 493/503, confocal) in 3T3-L1 adipocytes; type: cell-based, mouse; settings: differentiated 3T3-L1 adipocytes, 100 nM, 30 hours
Description: To observe the functionality of the fusion proteins related to lipid metabolism, the 3T3-L1 mouse pre-adipocyte cell line was used as the cell line itself (undifferentiated) or by differentiating into adipocytes. Differentiation into the adipocytes was performed by inducing primary differentiation for the 3T3-L1 cells in a medium containing DMEM, 10% FBS, 10 μg/ml insulin, 0.5 mM IBMX (3-Isobutyl-1-methylxanthine), and 1 μM dexamethasone for 2 days, and inducing secondary differentiation with a medium containing DMEM, 10% FBS, and 10 μg/ml insulin for the remaining 4 days. The adipocytes in which differentiation was finally completed were treated with the test substances at a concentration of 100 nM for 30 hours (Control: PBS) and then used for each test.
In addition, lipid droplets of adipocytes were stained with BODIPY 493/503 dye sample, and then confocal image scanning was performed to analyze the size and diameter of the lipid droplets.

[2] = mouse, in vivo, 2.5 mg/kg
Description: For evaluation, ten-week-old C57BL/6 mice were used, and the mice were reared in a specialized animal facility which provided a normal diet and a 12/12 hour night/day cycle and then used for experimentation.
The synthetic peptide (SEQ ID NO: 8) and fusion protein (SEQ ID NO: 13) were each injected into the mice at a concentration of 2.5 mg/kg, and blood was collected at 0, 0.5, 2, 4, 24 hours after injection. The collected blood was centrifuged and the obtained plasma was analyzed. At this time, in order to perform effective quantification of the substances, each substance was conjugated with Dylight 680 Near-Infrared dye (NIR) in advance prior to injection, and the finally collected blood samples were examined by observing fluorescent signals with a SpectraMax i3 microplate reader device.

[3] = test system: plasma proteins; assay: Plasma protein binding test (PPB); type: in vitro ADME, mice; settings: mouse plasma, 5 uM, 37° C., 4 hours, 100 kD filter, western blot
Description: Such an increase in half-life was further confirmed by measuring plasma protein binding rates (Plasma protein binding test, PPB). […] Each of the plasma of the mice and the fusion protein (SEQ ID NO: 13), and or His tag-wild-type substance (1-81) (SEQ ID NO: 5) was incubated at a concentration of 5 uM at 37° C. for 4 hours. After that, they were centrifuged with a 100 kD filter to obtain fractions of the substance bound to the plasma proteins or fractions of the unbound substance. Each of the obtained fractions was evaluated by western blot.

[4] = test system: follicular cells (dermal papilla cells); assay: Follicular cell proliferation by MTT assay; type: cell-based; settings: 100 nM, 24 hours; compared with Control (PBS)
Description: Whether the test substances of the present invention has effects on preventing hair loss or promoting hair growth was evaluated as follows. Specifically, it was observed whether they have efficacy of improving loss of follicular cells in scalp tissue which is a cause of hair loss, or hair growth due to an increase in hair follicles, by using dermal papilla cells and evaluating cell proliferation of follicular cells.
The follicular cells were treated with each test substance 100 nM (control: PBS) for 24 hours, and the degree of cell proliferation was evaluated by MTT assay.

[5] = test system: Akt and S6 (phosphorylation, p-Akt/p-S6) in C2C12 mouse skeletal muscle cell line; assay: Akt and S6 phosphorylation (western blot) in C2C12 muscle cells; type: cell-based; settings: 2 hours
Description: In order to evaluate functions related to muscle loss diseases, each test substance was treated to the undifferentiated C2C12 mouse skeletal muscle cell line (mouse myoblast cell line) or the cell line in which differentiation into myotubes was completed. Differentiation of the cell line into myotubes was performed by conducting addition of 2% horse serum to culture medium and replacement with new medium every two days for a total of 4 days.
To the undifferentiated or differentiated cell lines, the test substances, fusion proteins (SEQ ID NOs: 1, 2, 3, 7, 14 and 15) were treated at a concentration of 100 nM (Control: PBS treated group) for 2 hours. Thereafter, the cells were immediately washed once and the cells were lysed with RIPA buffer (Radioimmunoprecipitation assay buffer). The activity of Akt and S6 (phosphorylation, p-Akt/p-S6) was observed by western blot. Akt phosphorylation is a well-known marker of activation of cell signaling pathways, and is an indicator of beneficial effects on muscle cells such as promotion of glucose metabolism and promotion of muscle biosynthesis. Similarly, S6 phosphorylation is a well-known marker of mTOR activity, and the activity of mTOR is an indicator showing muscle biosynthesis and various cell signaling pathways.

[6] = C2C12 differentiated into myotubes, 100 nM, control PBS
[7] = Table 6, C2C12, 100 nM, differentiation state not given
[8] = undifferentiated C2C12, 100 nM, control PBS

Row | Molecule | Lipid droplet size [1] | Maximum lipid droplet diameter per cell [1] | Total lipid droplet area [1] | Half-life [2] [h] | Binding rate with the plasma proteins [3] [%] | Cell viability (MTT, cell proliferation) [4] | Activity (% increase compared to control) Differentiated Akt [5, 6] [%] | Activity (% increase compared to control) Differentiated S6 [5, 6] [%] | Activity (% increase compared to control) Akt [5, 7] [%] | Activity (% increase compared to control) S6 [5, 7] [%] | Activity (% increase compared to control) Undifferentiated Akt [5, 8] [%] | Activity (% increase compared to control) Undifferentiated S6 [5, 8] [%]
1 | B1 | reduced at a significant level | reduced at a significant level | reduced at a significant level | 1.6 |  |  |  |  |  |  |  | 
2 | B2 |  |  |  |  | 5 | significantly increased | 248 | 262 | 254 | 217 | 165 | 207
